{
  "source": "patent US20210269499A1",
  "about": "“HEPATITIS B AND/OR HEPATITIS D-PERMISSIVE CELLS AND ANIMALS” (TECHNISCHE UNIVERSITAET MUENCHEN, priority 2018, published 2021)",
  "key": {"porcine NTCP": {"test_system": "porcine NTCP", "experiment": "Guide RNA efficiency to cause Indel mutations in porcine kidney fibroblasts (CRISPR/Cas9)", "format": "cell-based", "conditions": "modified PX330 plasmid", "procedure": "Here, porcine kidney fibroblasts were transfected with a modified PX330 plasmid, carrying an additional Puromycin selection cassette, porcine NTCP guide RNA sequence and Cas9 nuclease. Several guide RNA sequences (18 bp long) were tested for their efficiency to cause Insertion/Deletion (Indel) mutations."}, "HBV [1]": {"test_system": "HBV", "experiment": "HBV infection of HepG2 cells transfected with NTCP variants, HBeAg ELISA of supernatant", "format": "cell-based, Hepatitis B virus", "conditions": "HepG2 transfected with NTCP plasmid, HBV MOI 300, days 4, 7 and 10 after infection, FIG. 5A", "procedure": "However, neither of these approaches was successful with porcine NTCP. […] Therefore, these human cells are a valuable tool to analyze the effect of different NTCP muteins in a human cell culture system.\nHepG2 cells were transfected with plasmids coding for different variants of NTCP: human (hNTCP), porcine (pNTCP) or chimeric (pNTCP w/ hAA). After transfection, the cells were incubated for three days with 2% DMSO before they were infected with HBV at an MOI of 300. The supernatant was collected at days 4, 7 and 10 after infection and analyzed for the viral protein HBeAg by ELISA."}, "HBV [2]": {"test_system": "HBV", "experiment": "qPCR of HBV rcDNA and cccDNA in PPH", "format": "cell-based, Hepatitis B virus", "conditions": "day 5 after infection, FIG. 3", "procedure": "(§1) Primary porcine hepatocytes (PPH) were isolated from a pig liver less than 3 h after slaughter and kept in culture: For infection experiments, the cells were seeded in a 24 well plate and for Southern Blot experiments into 6 well plates. The next day, the cells were transduced with adenovirus at an MOI of 1 or 5 (see FIG. 2) and cultured in DMEM-F12 comprising […]. The sequences of the adenoviruses are shown in SEQ ID NO: 6 for Ad-hNTCP, SEQ ID NO: 7 for Ad-phNTCP and SEQ ID NO: 8 for Ad-hNTCP-tdTomato.\n(§2) On day 4 after isolation (day 3 after transduction), the cells were infected with HBV (genotype D, serotype ayw) in DMEM-F12 with 4% PEG6000 with an MOI of 1000.\nOn day 5 after infection, the 24 well plates were lysed, frozen and then DNA was isolated and analyzed for rcDNA or cccDNA using qPCR. In detail, total cellular DNA was extracted using NucleoSpin Tissue kit (Macherey Nagel). For selective cccDNA PCR, isolated DNA was treated with 5 units of T5 exonuclease (NEB, Frankfurt, Germany) for 30 min in 10 μl reaction volume (Xia 2017b) followed by heat-inactivation at 95° C. for 5 min and 4-fold dilution with distilled water. Two different primer sets were used to detect total intracellular HBV DNA (HBV1844F: 5′-[…]-3′ (SEQ ID NO: 9) and HBV1745R: 5′-GGAGGGATACATAG (SEQ ID NO: 10)."}, "HBV [3]": {"test_system": "HBV", "experiment": "Southern Blot analysis of HBV cccDNA in PPH", "format": "cell-based, Hepatitis B virus", "conditions": "day 4 after infection with HBV, FIG. 4", "procedure": "as §1, §2\nOn days 3 and 5 after HBV infection, samples were taken for HBeAg measurements. Medium was changed on day 3 after HBV infection. The 6 well plate for the Southern Blot analysis was frozen at −80° C. on day 4 after HBV infection and used for a Hirt extraction with subsequent Southern Blot. To detect protein-free forms of HBV DNA including cccDNA, a modified Hirt extraction procedure was used (Yan et al. 2012). Intracellular capsid-associated DNA was prepared as described (Ko et al. 2014). Viral DNA forms were separated on an agarose gel, transferred onto a nylon membrane, and hybridized with a digoxigenin-labeled HBV-specific probe (Ko et al. 2014). DNA signal was detected by DIG Luminescent Detection Kit (Roche)."}},
  "data": [
    {"molecule": "NTCP G3: guide RNA sequence GAAGGACAAGGTGCCCTA (SEQ ID NO: 22) (expressed or natural sequence)", "values": [
      {"measurement": "Indel frequency", "setting": "porcine NTCP", "value": "highest"}
    ]},
    {"molecule": "hNTCP: human NTCP receptor (SEQ ID NO: 4) (protein, listed as Homo sapiens) MEAHNASAPFNFTLPPNFGKRPTDLALSVILVFMLFFIMLSLGCTMEFSKIKAHLWKPKGLAIALVAQYGIMPLTAFVLGKVFRLKNIEALAILVCGCSPGGNLSNVFSLAMKGDMNLSIVMTTCSTFCALGMMPLLLYIYSRGIYDGDLKDKVPYKGIVISLVLVLIPCTIGIVLKSKRPQYMRYVIKGGMIIILLCSVAVTVLSAINVGKSIMFAMTPLLIATSSLMPFIGFLLGYVLSALFCLNGRCRRTVSMETGCQNVQLCSTILNVAFPPEVIGPLFFFPLLYMIFQLGEGLLLIAIFWCYEKFKTPKDKTKMIYTAATTEETIPGALGNGTYKGEDCSP", "values": [
      {"measurement": "susceptibility of HepG2 cells to HBV (HBeAg in supernatant)", "setting": "HBV [1]", "value": "susceptible to HBV"},
      {"measurement": "HBV cccDNA in PPH", "setting": "HBV [2]", "value": "drastic increase"},
      {"measurement": "HBV rcDNA in PPH", "setting": "HBV [2]", "value": "drastic increase"},
      {"measurement": "HBV cccDNA in Southern Blot", "setting": "HBV [3]", "value": "show HBV cccDNA"}
    ]}
  ]
}
